Patent publication US20170290876A1 (Novartis, published 2017)
Changes are numbered by the printed parent chain.

T1: human VEGF (human, UniProt P15692 207-395, biotinylated (site not stated))
T1 construct: Biotinylated human VEGF generated internally; also called hVEGF; hVEGF-biotin
T1 sequence: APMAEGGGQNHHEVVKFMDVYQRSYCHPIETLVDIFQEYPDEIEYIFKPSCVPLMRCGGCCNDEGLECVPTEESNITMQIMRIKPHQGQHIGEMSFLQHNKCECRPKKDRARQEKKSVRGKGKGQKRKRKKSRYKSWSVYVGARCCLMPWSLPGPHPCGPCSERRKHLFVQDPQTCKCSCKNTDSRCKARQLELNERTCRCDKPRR

B1: NVS104 (Fab)
heavy: GACGVYHREAQSGKYYLTYAEAKAVCEFEGGHLATYKQLLCAQKIGFHVCAAGWMAKGRVGYPIVKPGPNCGFGKTGIIDYGIRLNRSERWDAYCYNPHAGGGSQVQLVESGGGLVQPGGSLRLSCTASGFSLTDYYYMTWVRQAPGKGLEWVGFIDPDDDPYYATWAKGRFTISRDNSKNTLYLQMNSLRAEDTAVYYCAGGDHNSGWGLDIWGQGTLVTVSSASTKGPSVFPLAPSSKSTSGGTAALGCLVKDYFPEPVTVSWNSGALTSGVHTFPAVLQSSGLYSLSSVVTVPSSSLGTQTYICNVNHKPSNTKVDKRVEPKSC
light: ACGVYHREAQSGKYYLTYAEAKAVCEFEGGHLATYKQLLCAQKIGFHVCAAGWMAKGRVGYPIVKPGPNCGFGKTGIIDYGIRLNRSERWDAYCYNPHAGGGSDIVMTQSPSTLSASVGDRVIITCQASEIIHSWLAWYQQKPGKAPKLLIYLASTLASGVPSRFSGSGSGAEFTLTISSLQPDDFATYYCQNVYLASTNGANFGQGTKLTVLKRTVAAPSVFIFPPSDEQLKSGTASVVCLLNNFYPREAKVQWKVDNALQSGNSQESVTEQDSKDSTYSLSSTLTLSKADYEKHKVYACEVTHQGLSSPVTKSFNRGEC
notes: Tag NVS-AX at the N-terminus of NVS4 heavy and light chains
B2: NVS106 (Fab)
heavy: B1 heavy with Q105E, D135N, D159Q, D160N, D204N, D212N
light: B1 light with D104E, E130Q, I131K, L153Q, T156K, S159K
notes: Tag NVS-AX at the N-terminus of the LC2 light chain and the HC4 heavy chain
B3: NVS105 (Fab)
heavy: QVQLVESGGGLVQPGGSLRLSCTASGFSLTDYYYMTWVRQAPGKGLEWVGFIDPDDDPYYATWAKGRFTISRDNSKNTLYLQMNSLRAEDTAVYYCAGGDHNSGWGLDIWGQGTLVTVSSASTKGPSVFPLAPSSKSTSGGTAALGCLVKDYFPEPVTVSWNSGALTSGVHTFPAVLQSSGLYSLSSVVTVPSSSLGTQTYICNVNHKPSNTKVDKRVEPKSCGSGGGACGVYHREAQSGKYYLTYAEAKAVCEFEGGHLATYKQLLCAQKIGFHVCAAGWMAKGRVGYPIVKPGPNCGFGKTGIIDYGIRLNRSERWDAYCYNPHA
light: DIVMTQSPSTLSASVGDRVIITCQASEIIHSWLAWYQQKPGKAPKLLIYLASTLASGVPSRFSGSGSGAEFTLTISSLQPDDFATYYCQNVYLASTNGANFGQGTKLTVLKRTVAAPSVFIFPPSDEQLKSGTASVVCLLNNFYPREAKVQWKVDNALQSGNSQESVTEQDSKDSTYSLSSTLTLSKADYEKHKVYACEVTHQGLSSPVTKSFNRGECGSGGGACGVYHREAQSGKYYLTYAEAKAVCEFEGGHLATYKQLLCAQKIGFHVCAAGWMAKGRVGYPIVKPGPNCGFGKTGIIDYGIRLNRSERWDAYCYNPHA
notes: Tag NVS-AX at the C-terminus of NVS4 heavy and light chains
B4: NVS107 (Fab)
heavy: B3 heavy with Q1E, D31N, D55Q, D56N, D100N, D108N
light: B3 light with D1E, E27Q, I28K, L50Q, T53K, S56K
notes: Tag NVS-AX at the C-terminus of the LC2 light chain and the HC4 heavy chain
B5: NVS4 (Fab)
heavy: EVQLVESGGGLVQPGGSLRLSCTASGFSLTDYYYMTWVRQAPGKGLEWVGFIDPDDDPYYATWAKGRFTISRDNSKNTLYLQMNSLRAEDTAVYYCAGGDHNSGWGLDIWGQGTLVTVSSASTKGPSVFPLAPSSKSTSGGTAALGCLVKDYFPEPVTVSWNSGALTSGVHTFPAVLQSSGLYSLSSVVTVPSSSLGTQTYICNVNHKPSNTKVDKRVEPKSC
light: EIVMTQSPSTLSASVGDRVIITCQASEIIHSWLAWYQQKPGKAPKLLIYLASTLASGVPSRFSGSGSGAEFTLTISSLQPDDFATYYCQNVYLASTNGANFGQGTKLTVLKRTVAAPSVFIFPPSDEQLKSGTASVVCLLNNFYPREAKVQWKVDNALQSGNSQESVTEQDSKDSTYSLSSTLTLSKADYEKHKVYACEVTHQGLSSPVTKSFNRGEC
notes: Fab version of the 1008 scFv; also called untagged anti-VEGF Fab
B6: NVS103 (Fab)
heavy: B5 heavy
light: B3 light
notes: Tag NVS-AX at the C-terminus of the NVS4 light chain
B7: NVS100 (Fab)
heavy: B1 heavy
light: B5 light
notes: Tag NVS-AX at the N-terminus of the NVS4 heavy chain
B8: NVS4/NVSX (Fab)
heavy: EVQLVESGGGLVQPGGSLRLSCTASGFSLTDYYYMTWVRQAPGKGLEWVGFIDPDDDPYYATWAKGRFTISRDNSKNTLYLQMNSLRAEDTAVYYCAGGDHNSGWGLDIWGQGTLVTVSSASTKGPSVFPLAPSSKSTSGGTAALGCLVKDYFPEPVTVSWNSGALTSGVHTFPAVLQSSGLYSLSSVVTVPSSSLGTQTYICNVNHKPSNTKVDKRVEPKSCGSGGGGVYHREAISGKYYLTYAEAKAVCEFEGGHLATYKQLLAAQKIGFHVCAAGWMAKGRVGYPIVKPGPNCGFGKTGIIDYGIRLNRSERWDAYCYNPHA
light: B5 light
notes: NVS4 Fab linked to peptide tag NVS-X
B9: NVS101 (Fab)
heavy: B5 heavy
light: B1 light
B10: LC4T (Fab, V domains shown)
VH: EVQLVESGGGLVQPGGSLRLSCTASGFSLTDYYYMTWVRQAPGKGLEWVGFIDPDDDPYYATWAKGRFTISRDNSKNTLYLQMNSLRAEDTAVYYCAGGDHNSGWGLDIWGQGTLVTVSS
VL: EIVMTQSPSTLSASVGDRVIITCQASQKIHSWLAWYQQKPGKAPKLLIYQASTLAKGVPSRFSGSGSGAEFTLTISSLQPDDFATYYCQNVYLASTNGANFGQGTKLTVLK
notes: Light chain CDR variant LC4 with tagged NVS4 heavy chain
B11: NVS102 (Fab)
heavy: B3 heavy
light: B5 light
notes: Tag NVS-AX at the C-terminus of the NVS4 heavy chain
B12: NVS4/NVSY (Fab)
heavy: B8 heavy with L265Q
light: B5 light
notes: NVS4 Fab linked to peptide tag NVS-Y
B13: LC5T (Fab, V domains shown)
VH: B10 VH
VL: B10 VL with K28I, H30K
notes: Light chain CDR variant LC5 with tagged NVS4 heavy chain
B14: LC3T (Fab, V domains shown)
VH: B10 VH
VL: B10 VL with T53K, T96R
notes: Light chain CDR variant LC3 with tagged NVS4 heavy chain
B15: LC2T (Fab, V domains shown)
VH: B10 VH
VL: B10 VL with T53K
notes: Light chain CDR variant LC2 with tagged NVS4 heavy chain
B16: LC6T (Fab, V domains shown)
VH: B10 VH
VL: B10 VL with K28I, T96R
notes: Light chain CDR variant LC6 with tagged NVS4 heavy chain
B17: LC7T (Fab, V domains shown)
VH: B10 VH
VL: B10 VL with H30K, Q50L, T96R
notes: Light chain CDR variant LC7 with tagged NVS4 heavy chain

How the values were obtained:
[1] = target: T1, human VEGF; test: Biacore SPR, hVEGF
[2] = target: T1, human VEGF; test: Biacore SPR, human VEGF
Procedure: In order to determine target kinetics, two different formats were utilized. […] The second format is an anti-fab capture method in which the fab protein samples are captured and the target proteins flowed over at various concentrations.
(§1) The sample compartment which includes the analytes, ligands, and regeneration buffer, is kept at 15° C. All other running conditions were carried out at either 25° C. or 37° C. in 1×HBSE+P buffer. […] Data was collected at 10 Hz and analyzed using the Biacore T200 Evaluation Software (GE Healthcare®). This program uses a global fitting analysis method for the determination of rate and affinity constants for each interaction.

[3] = target: T1, human VEGF; test: Biacore SPR, hVEGF; remark: listed apart in the source
Procedure: At first, individual CDR residues were substituted and the affinity for hVEGF was measured by Biacore as described below. […] HC8T, and HC9T and the affinity of the resulting peptide-tagged Fab for both HA and hVEGF was measured by Biacore as described below (Table 17).
Affinity of optimized HA-binding peptide tags for HA and human VEGF were measured by Biacore. […] In order to determine target kinetics, two different formats were utilized. […] The second format is an anti-fab capture method in which the fab protein samples are captured and the target proteins flowed over at various concentrations.
as §1

Binder | Kd [1] | koff [1] | kon [1] | Kd [3] | koff [3] | kon [3] | further results
B1 | 0.854 pM | 1.57e-05 s⁻¹ | 1.84e+07 M⁻¹ s⁻¹ |  |  |  | 
B2 | 10.4 pM | 0.000563 s⁻¹ | 5.4e+07 M⁻¹ s⁻¹ |  |  |  | 
B3 | 0.13 pM | 3.97e-05 s⁻¹ | 3.06e+08 M⁻¹ s⁻¹ |  |  |  | 
B4 | 0.741 pM | 0.000104 s⁻¹ | 1.41e+08 M⁻¹ s⁻¹ |  |  |  | 
B5 |  |  |  |  |  |  | Kd [2]: 5.1 pM; koff [2]: 1.38e-05 s⁻¹; kon [2]: 2.71e+06 M⁻¹ s⁻¹
B6 | 2.34 pM | 0.000128 s⁻¹ | 5.49e+07 M⁻¹ s⁻¹ |  |  |  | 
B7 | 1.34 pM | 4.97e-05 s⁻¹ | 3.71e+07 M⁻¹ s⁻¹ |  |  |  | 
B8 | 0.465 pM | 2.11e-05 s⁻¹ | 4.53e+07 M⁻¹ s⁻¹ |  |  |  | 
B9 | 7.1 pM | 0.000219 s⁻¹ | 3.09e+07 M⁻¹ s⁻¹ |  |  |  | 
B10 |  |  |  | 1.49 pM | 0.000135 s⁻¹ | 9.1e+07 M⁻¹ s⁻¹ | 
B11 | 1.43 pM | 0.000134 s⁻¹ | 9.35e+07 M⁻¹ s⁻¹ |  |  |  | 
B12 | 0.447 pM | 2.26e-05 s⁻¹ | 5.06e+07 M⁻¹ s⁻¹ |  |  |  | 
B13 |  |  |  | 4.35 pM | 0.000588 s⁻¹ | 1.35e+08 M⁻¹ s⁻¹ | 
B14 |  |  |  | 1.2 pM | 0.00016 s⁻¹ | 1.34e+08 M⁻¹ s⁻¹ | 
B15 |  |  |  | 1.33 pM | 0.000109 s⁻¹ | 8.18e+07 M⁻¹ s⁻¹ | 
B16 |  |  |  | 1.09 pM | 9.66e-05 s⁻¹ | 8.88e+07 M⁻¹ s⁻¹ | 
B17 |  |  |  | 3.79 pM | 0.000229 s⁻¹ | 6.06e+07 M⁻¹ s⁻¹ | 
